Measured values: paper PMC12700550, “DLL4^+ neutrophils promote Notch1-mediated endothelial PANoptosis to exacerbate acute lung injury in sepsis” (The Journal of Clinical Investigation, 2025)
“And” between values parts separate entries of the source, which are not always exact repeats. Equal values may be shown once.

Assays:
c-caspase-3 = experiment: c/t caspase-3 (apoptosis) in PVECs cocultured with neutrophils, Western blot; type: cell-based, mouse; conditions: for c/t caspase-3 (Figure 4H): 10 μM peptide, 16 h, individual replicates
Experimental: Wild-type PVECs (5 × 10^5) were cocultured with sorted DLL4^+ neutrophils (5 × 10^5) or DLL4^– neutrophils (5 × 10^5) and then treated with different dosages of peptides or 10 μM DAPT (Thermo Fisher Scientific), 10 μM NDI (GenScript), or 10 μM NDI scramble (GenScript). Notch1-knockdown PVECs (5 × 10^5) were cocultured with sorted DLL4^+ neutrophils (5 × 10^5). After 16 hours, neutrophils were washed away by PBS, and PVECs were collected for further experiments. Cell viability was evaluated by propidium iodide staining using the FITC Annexin V Apoptosis Detection Kit I (catalog 556547, BD Pharmingen). Cell death was quantified as the percentage of propidium iodide–positive cells by flow cytometry.
PVECs and lung tissue were collected in previous steps. Whole-cell proteins were extracted, and the protein concentration was measured using an ABC protein assay kit (catalog 5000002, Bio-Rad). Proteins were separated using NuPAGE 4%–12% Bis-Tris gels (Invitrogen), transferred to PVDF membranes, and immunoblotted with the antibodies indicated in the figure legends according to the manufacturer’s recommendations. The ZBP1 antibody (catalog PA5-20455; 1:1,000) used in this study was obtained from Thermo Fisher Scientific, and the c-GSDMD (catalog 10137S; 1:250), GSDMD (catalog 39754S; 1:1000), c-caspase-3 (catalog 9661L; 1:250), caspase-3 (catalog 9662S; 1:1,000), p-MLKL (catalog 37333S; 1:250), MLKL (catalog 37705S; 1:1,000), N1ICD (c-Notch1) (catalog 4147S; 1:250), and Notch1 (catalog 3608S; 1:1,000) antibodies were obtained from Cell Signaling Technology. GAPDH (catalog 60004-1-Ig; 1:10,000) and β-actin (catalog A5441, Sigma-Aldrich; 1:5,000) were obtained from ProteinTech. After the blots were incubated with primary antibodies, the membranes were washed 3 times, and the blots were subsequently incubated with the corresponding fluorescent secondary antibody (LI-COR). Bands were detected using an Odyssey FC Dual-Mode Imaging system 2800 (LI-COR).

C57BL/6 mice, CLP sepsis = experiment: Evans blue dye lung extravasation, CLP mice; type: in vivo, mouse; conditions: 20 h; for Evans blue dye, EBD/dry lung tissue (Figure 6L): 10 mg/kg NDI, EBD 20 mg/kg, individual mice
Experimental: Sepsis was induced in mice by cecal ligation and puncture (CLP) as described previously ([45], [46]). Mice were anesthetized with isoflurane to a surgical plane and placed in a supine position. CLP was performed through a midline laparotomy. The abdomen was shaved and disinfected. Through a 2 cm midline incision, the cecum was exposed and then ligated with a 4-0 silk suture 1 cm proximal from the distal cecal extremity. […] A small amount of cecal content was extruded through both holes, and the ligated cecum was returned to the peritoneal cavity. The wound was closed in layers. […] A small amount of cecal content was extruded. […] Vehicle groups received an equivalent volume of PBS, while treatment groups received NDI 10 mg/kg in […] PBS via retro-orbital injection after CLP. This dose was chosen primarily on the basis of our laboratory’s prior experience, we have consistently used this dose in mouse CLP models with reproducible efficacy and without observable toxicity ([39], [44]). Sham-operated animals underwent a laparotomy without CLP. After closure, the mice received a subcutaneous injection of 0.5 mL of normal saline to overcome surgery-induced dehydration. […] All mice were subcutaneously injected with a single dose of 0.1 mg/kg buprenorphine after CLP. Lung vascular leakage was quantified using the Evans blue dye–labeled (EBD-labeled) albumin extravasation assay ([48]). […] Sigma-Aldrich) via retro-orbital injection. […] The whole lung was dehydrated for 48 hours at 60°C, immersed in formamide (1 mL/g wet weight; Sigma-Aldrich) at 37°C for 48 hours, and centrifuged at 5,000g for 30 minutes. The amount of extracted EBD in the supernatant was quantified by spectrophotometry. The concentration of extravasated EBD-albumin in lung homogenates was expressed as nanograms EBD per milligram of dry lung tissue. Lung water content was calculated as (wet weight – dry weight)/wet weight %.

DLL4 = DLL4 mRNA in eCIRP-treated BMDNs, qPCR; type: cell-based, mouse; conditions: for DLL4 mRNA: DLL4-CIRP
Experimental: (§1) mRNA was extracted from lung tissues with TRIzol reagent (Invitrogen, Thermo Fisher Scientific). An equal amount ([…]) of mRNA was reverse-transcribed into cDNA using the reverse transcriptase enzyme (Invitrogen, Thermo Fisher Scientific). qPCR was performed from the diluted cDNA templates with forward and reverse primers (Supplemental Table 4) and SYBR Green PCR Master Mix (Applied Biosystems, Thermo Fisher Scientific) using an Applied Biosystems 7300 real-time PCR machine. Mouse β-actin served as an internal control gene for normalization. Relative expression of mRNA was represented as fold change in comparison with the sham group.
(§2) BMDNs (1 × 10^6) were treated with eCIRP (1 μg/mL) for 12 hours, and DLL1, DLL3, and DLL4 were analyzed by qPCR.

DLL1 = DLL1 mRNA in eCIRP-treated BMDNs, qPCR; type: cell-based, mouse; conditions: for DLL1 mRNA: DLL1-CIRP
Experimental: as §1, §2

ECAGSPCHNGGTCEDGI [NDI] was tested. Which “effect on c-caspase-3” value (c-caspase-3; 10 μM NDI, DLL4^+ neutrophil coculture) did it give?
Its value is “significantly reduced these markers of PANoptosis”.

And the “c/t caspase-3 (Figure 4H)” value (c-caspase-3; DLL4^+ neutrophil coculture)?
Its value is 0.8975 and 0.9855 and 1.108 and 1.088 and 1.039 and 1.038.

What about the “c/t caspase-3 (Figure 4H)” value (c-caspase-3; DLL4^– neutrophil coculture) of the same molecule?
The value was 0.9343 and 1.21 and 1.29 and 1.079 and 1.0374 and 1.09.

And the “effect on Evans blue dye content” value (C57BL/6 mice, CLP sepsis; DLL4^+ neutrophil-injected CLP mice, 10 mg/kg)?
Its value is “significantly attenuated these effects, reducing both lung water content and Evans blue dye content”.

And the “Evans blue dye, EBD/dry lung tissue (Figure 6L)” value (C57BL/6 mice, CLP sepsis; DLL4^+ neutrophils + CLP)?
The value was 94.3739 nanograms EBD per milligram of dry lung tissue and 81.6499 nanograms EBD per milligram of dry lung tissue and 102.841 nanograms EBD per milligram of dry lung tissue and 95.8364 nanograms EBD per milligram of dry lung tissue and 67.7799 nanograms EBD per milligram of dry lung tissue and 56.8397 nanograms EBD per milligram of dry lung tissue and 66.2061 nanograms EBD per milligram of dry lung tissue and 49.7845 nanograms EBD per milligram of dry lung tissue and 71.2396 nanograms EBD per milligram of dry lung tissue.

And the “Evans blue dye, EBD/dry lung tissue (Figure 6L)” value (C57BL/6 mice, CLP sepsis; DLL4^– neutrophils + CLP)?
Its value is 62.3234 nanograms EBD per milligram of dry lung tissue and 74.8524 nanograms EBD per milligram of dry lung tissue and 79.6398 nanograms EBD per milligram of dry lung tissue and 73.406 nanograms EBD per milligram of dry lung tissue and 63.9328 nanograms EBD per milligram of dry lung tissue and 50.0167 nanograms EBD per milligram of dry lung tissue and 66.1099 nanograms EBD per milligram of dry lung tissue and 61.0318 nanograms EBD per milligram of dry lung tissue and 57.5122 nanograms EBD per milligram of dry lung tissue.

B1: eCIRP: extracellular cold-inducible RNA-binding protein; recombinant murine, produced in our laboratory (protein, UniProt P60824 1-172, looked up)
Cold-inducible RNA-binding …: MASDEGKLFVGGLSFDTNEQALEQVFSKYGQISEVVVVKDRETQRSRGFGFVTFENIDDAKDAMMAMNGKSVDGRQIRVDQAGKSSDNRSRGYRGGSAGGRGFFRGGRSRGRGFSRGGGDRGYGGGRFESRSGGYGGSRDYYASRSQGGSYGYRSSGGSYRDSYDSYATHNE
Which results are given for B1?
effect on DLL4 expression (DLL4; BMDNs, eCIRP 1 μg/mL, 12 h): selectively upregulated DLL4; DLL4 mRNA (DLL4; replicate 1): 2.784; DLL4 mRNA (DLL4; replicate 2): 1.987; DLL4 mRNA (DLL4; replicate 3): 1.949; DLL4 mRNA (DLL4; replicate 4): 2.578; DLL4 mRNA (DLL4; replicate 5): 2.145; DLL4 mRNA (DLL4; replicate 6): 5.912; DLL4 mRNA (DLL4; replicate 7): 4.801; DLL4 mRNA (DLL4; replicate 8): 3.122; effect on DLL1 expression (DLL1; BMDNs, eCIRP 1 μg/mL, 12 h): no significant induction of DLL1 or DLL3; DLL1 mRNA (DLL1; replicate 1): 0.838; DLL1 mRNA (DLL1; replicate 2): 0.9002; DLL1 mRNA (DLL1; replicate 3): 1.276; DLL1 mRNA (DLL1; replicate 4): 1.001; DLL1 mRNA (DLL1; replicate 5): 0.5711; DLL1 mRNA (DLL1; replicate 6): 0.6454; DLL1 mRNA (DLL1; replicate 7): 0.3425; DLL1 mRNA (DLL1; replicate 8): 0.4208
